Laboratory results reported in the array DNA melting data of Ke et al..

Assay: melting temperature; melt of duplexes
Details: sodium 0.0675 M; strand 1 µM

CGACGTGCAAAATGTGCTG+CAGCACATAGTGCACGTCG (((((((((..((((((((+))))))))..)))))))))
Tm: 47 °C

CGACGTGCAACATGTGCTG+CAGCACATGACGCACGTCG ((((((((..(((((((((+)))))))))..))))))))
Tm: 50.9 °C

CGACGTGCCGCATGTGCTG+CAGCACATCCCGCACGTCG ((((((((.(.((((((((+)))))))).).))))))))
Tm: 48.8 °C

CGACGTGCATCATGTGCTG+CAGCACATCGAGCACGTCG ((((((((...((((((((+))))))))...))))))))
Tm: 48.9 °C

CGACGTGCTACATGTGCTG+CAGCACATACCGCACGTCG ((((((((...((((((((+))))))))...))))))))
Tm: 47.5 °C

CGACGTGCATAATGTGCTG+CAGCACATGGGGCACGTCG ((((((((...((((((((+))))))))...))))))))
Tm: 51.2 °C

CGACGTGCAGGATGTGCTG+CAGCACATGCTGCACGTCG ((((((((((.((((((((+)))))))).))))))))))
Tm: 59.6 °C

CGACGTGCCTCATGTGCTG+CAGCACATGTTGCACGTCG ((((((((..(((((((((+)))))))))..))))))))
Tm: 52.3 °C

CGACGTGCTGGATGTGCTG+CAGCACATCAAGCACGTCG (((((((((.(((((((((+))))))))).)))))))))
Tm: 59 °C

CGACGTGCAATATGTGCTG+CAGCACATAATGCACGTCG (((((((((.(((((((((+))))))))).)))))))))
Tm: 54.6 °C

CGACGTGCCTGATGTGCTG+CAGCACATTGGGCACGTCG (((((((((..((((((((+))))))))..)))))))))
Tm: 57.1 °C

CGACGTGCTGTATGTGCTG+CAGCACATATAGCACGTCG (((((((((.(((((((((+))))))))).)))))))))
Tm: 57 °C

CGACGTGCACCATGTGCTG+CAGCACATCATGCACGTCG (((((((((..((((((((+))))))))..)))))))))
Tm: 45.6 °C

CGACGTGCCAAATGTGCTG+CAGCACATGGCGCACGTCG ((((((((...((((((((+))))))))...))))))))
Tm: 51.2 °C

CGACGTGCGTTATGTGCTG+CAGCACATTTCGCACGTCG (((((((((..((((((((+))))))))..)))))))))
Tm: 54.4 °C

CGACGTGCGAGATGTGCTG+CAGCACATACAGCACGTCG ((((((((...((((((((+))))))))...))))))))
Tm: 52.6 °C

CGACGTGCGCGATGTGCTG+CAGCACATTCCGCACGTCG (((((((((..((((((((+))))))))..)))))))))
Tm: 54.9 °C

CGACGTGCCGGATGTGCTG+CAGCACATATGGCACGTCG (((((((((..((((((((+))))))))..)))))))))
Tm: 57.2 °C

CGACGTGCTTTATGTGCTG+CAGCACATCCCGCACGTCG ((((((((...((((((((+))))))))...))))))))
Tm: 46.8 °C

CGACGTGCCAAATGTGCTG+CAGCACATCGAGCACGTCG ((((((((...((((((((+))))))))...))))))))
Tm: 49.6 °C

CGACGTGCAAGATGTGCTG+CAGCACATCCCGCACGTCG ((((((((..(((((((((+)))))))))..))))))))
Tm: 52.9 °C

CGACGTGCGTGATGTGCTG+CAGCACATAAGGCACGTCG ((((((((.(.((((((((+)))))))).).))))))))
Tm: 52.7 °C

CGACGTGCTAGATGTGCTG+CAGCACATAATGCACGTCG ((((((((...((((((((+))))))))...))))))))
Tm: 50.6 °C

CGACGTGCCCAATGTGCTG+CAGCACATAGTGCACGTCG ((((((((.(.((((((((+)))))))).).))))))))
Tm: 46.2 °C

CGACGTGCAGTATGTGCTG+CAGCACATGTAGCACGTCG ((((((((...((((((((+))))))))...))))))))
Tm: 49.8 °C

CGACGTGCGTTATGTGCTG+CAGCACATGAAGCACGTCG ((((((((.(.((((((((+)))))))).).))))))))
Tm: 54.8 °C

CGACGTGCGCCATGTGCTG+CAGCACATAGCGCACGTCG ((((((((((.((((((((+)))))))).))))))))))
Tm: 58.9 °C

CGACGTGCAATATGTGCTG+CAGCACATGAAGCACGTCG ((((((((...((((((((+))))))))...))))))))
Tm: 52.3 °C

CGACGTGCCTGATGTGCTG+CAGCACATTTTGCACGTCG ((((((((...((((((((+))))))))...))))))))
Tm: 48.8 °C

CGACGTGCCTAATGTGCTG+CAGCACATTATGCACGTCG ((((((((.((((((((((+)))))))))).))))))))
Tm: 54 °C

CGACGTGCAACATGTGCTG+CAGCACATTAGGCACGTCG ((((((((...((((((((+))))))))...))))))))
Tm: 48.9 °C

CGACGTGCGGTATGTGCTG+CAGCACATAGTGCACGTCG ((((((((..(((((((((+)))))))))..))))))))
Tm: 53 °C

CGACGTGCACGATGTGCTG+CAGCACATATCGCACGTCG ((((((((...((((((((+))))))))...))))))))
Tm: 44.2 °C

CGACGTGCGGCATGTGCTG+CAGCACATTTAGCACGTCG ((((((((...((((((((+))))))))...))))))))
Tm: 52 °C

CGACGTGCGGAATGTGCTG+CAGCACATTTTGCACGTCG ((((((((..(((((((((+)))))))))..))))))))
Tm: 55.2 °C

CGACGTGCGGAATGTGCTG+CAGCACATTCGGCACGTCG ((((((((.((((((((((+)))))))))).))))))))
Tm: 59.9 °C

CGACGTGCGGTATGTGCTG+CAGCACATAACGCACGTCG (((((((((.(((((((((+))))))))).)))))))))
Tm: 61.4 °C
